We go through 16 molecules from patent US20260258115A1 (MAPP BIOPHARMACEUTICAL, published 2026).

Sequences and labels used below:
B1: ADI-41842 (antibody, V domains shown)
VH: QVQLVQSGAEVKKPGASVRVSCKASGYTFTHYDINWVRQAPGQGLEWMGWINPNSGDTDYAQKFQGRVTMTVDTSISTAYLDLRSLTSADAAVYYCARGGAYATNGYYIIWFDPWGQGTLVTVSS
VL: DIVVTQSPSSLSASVGDRVTITCRASQSISRYLNWFQKKPGKAPHLLIYAASILQSEVPSRFSGSGSGTDFTLTISSLQPEDFATYYCQQSYNSPYTFGPGTKVDIK
notes: also called Ab 942; Antibody Number 942
B2: ADI-41841 (antibody, V domains shown)
VH: EVQLLESGGGLVKPGGSLRLSCAASGFSFSYYSMNWVRQTPGKGLEWVSSISDRSSYISYADSVKGRFTISRDNAKNSLYLQMNSLRAEDTAVYYCARDQYESYAFDIWGQGTTVTVSS
VL: DIQVTQSPSSLSASVGDRITITCQASQDVGNYLNWYQQKVGKAPKLLIHDASDLETGVPSRFSGSGSGTYFTFTISSLQPEDFATYYCQPYDNLRPVTFGQGTRLEIK
B3: ADI-41379 (antibody, V domains shown)
VH: QVQLVQSGAEVKKPGESLKISCKGSGYSFSSFWIGWVRQMPGKGLEWMGIIYPGDSDTRYSPSFKGQVTISADTSISTAYLQWSSLKASDTAMYYCAKSIVGSTGSFDPWGQGTLVTVSS
VL: DIQMTQSPSSLSASVGDRVTITCQASQDISNFLNWYQQKPGKAPKLLIYDASNLRTGVPSRFSGSGSGTEFTFTISSLQPEDIATYYCQQYHDLPPLTFGGGTKVDIK
notes: IgG1
B4: ADI-41435 (antibody, V domains shown)
VH: EVQLLESGGGLVKPGGSLRLSCAASGFTFSSYSLNWVRQAPGKGLEWVSSISSSGTYIFYADSVKGRFTISRDNAKDSLFLQMNSLRAEDTAVYYCARARDMGNYDILTGYYRVDAFDIWGQGTMVTVSS
VL: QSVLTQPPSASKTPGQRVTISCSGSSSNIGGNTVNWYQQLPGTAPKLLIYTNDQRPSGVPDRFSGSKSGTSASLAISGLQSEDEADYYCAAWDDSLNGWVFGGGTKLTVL
notes: IgG1
B5: ADI-41420 (antibody, V domains shown)
VH: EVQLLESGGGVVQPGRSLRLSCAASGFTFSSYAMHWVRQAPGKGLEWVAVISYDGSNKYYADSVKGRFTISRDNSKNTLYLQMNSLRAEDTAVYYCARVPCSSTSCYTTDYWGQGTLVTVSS
VL: QPVLTQPPSVSGSPGQSVTISCTGTSSDVGSYNRVSWYQQPPGTAPKLMIYEVSNRPSGVPDRFSGSKSGNTASLTISGLQAEDEADYYCSSYTSSSPVFGGGTKVTVL
notes: IgG1
B6: ADI-41400 (antibody, V domains shown)
VH: EVQLLESGGGLIQPGGSLRLSCAASKFTFSDYEMNWVRQAPGKGLEWLSYISSSGGIMYYADSVKGRFTISRDNAKNSLYLQMNSLRAEDTAVYFCARAGRLLSGLDVWGHGTTVTVSS
VL: EIVLTQSPSTLSASVGDRVTITCRASQSISPWLAWYQQKPGKAPKLLIYRASSLETGVPPRFSGSGSGTEFTLTISSLQPDDFATYYCQHYNSYLYSFGQGTKVEIK
notes: IgG1; also called Ab 693
B7: ADI-41361 (antibody, V domains shown)
VH: QVQLQESGGGVVQPGRSLRLSCAASGFAFSDYAMDWVRQAPGKGLEWVAVISFDGSNKFYADSVKGRFTISRDNSENTLFLQMNSLRAEDTAVYYCVRDFVPCSGATCYLPPVYWGRGTLVTVSS
VL: EIVLTQSPATLSVSPGERATLSCRASQSVSSDLAWYQQKPGQAPRLLIYGASTRATGIPARFSGSGSGTEFTLTISRLQSEDFAVYFCQQYNNWPSWTFGQGTKVEIK
notes: IgG1; also called Ab 658
B8: ADI-41406 (antibody, V domains shown)
VH: EVQLVESGGNLVQPGGSLRLSCAASGFTFSSYVMNWVRQAPGKGLEWVSGISGSGGTSYYADSVKGRFTISRDNSNNTLYLQMKSLRAEDTAVYYCAKDPRFQKWLIEGTNWFDSWGQGTLVTVSS
VL: DIQVTQSPSSLSASVGDRVTITCRASQDVSNYLAWFQQKPGTAPKSLIYAASILQSGVPSKFRGSGSGTDFSLTISSLQPEDFATYYCQQYRSFPPTFGGGTKVEIK
notes: IgG1; also called Ab 698
B9: ADI-41350 (antibody, V domains shown)
VH: EVQLVESGAGLVQPGGSLRLSCAASGFTFSTYAVSWVRQAPGKGLEWVSAISGSGASTYFADSVKGRFTISRDNSKNTLYLQMNSLRAEDTAVYYCAKARLELRPYYYGMDVWGQGTTVTVSS
VL: QPVLTQPASVSGSPGQSITISCTGTSSDVGGYNFVSWYQQHPGKAPKLIIYEVSNRPSGVSNRFSGSKSGNTASLTISGLQAEDEADYYCSSSTLSTTYVFGTGTKVTVL
notes: IgG1
B10: ADI-20975 (antibody, V domains shown)
VH: QVQLVESGTHVKKPGASVKVSCEASDDTFNNKGIVWVRQAPGQGLEWMGWIRPNNGNTKYAQKFQGRVTMTTDASTNTAYMELRSLRSGDTAVYYCAREQFKWNDFYFDYWGQGILVTVSS
VL: SYELMQPPSVSVAPGQTATITCGGSNIGSETVHWYQQKPGQAPVLVVHDDTDRPSGIPERFSGSNSGNTATLTISGVEAGDEADFYCQVRDSRTDDVVFGGGTKLTVL
B11: ADI-14405 (antibody, V domains shown)
VH: QVQLVQSGTEVKKPGASVKVSCKASGYTFTNYDISWVRQAPGQGLEWMGWISGSTGNTIYAQNLQGRLTMTTDTSTSTAYMELRSLRSDDTAIYYCARDNVGYASGNYFDYWGQGTLVTVSS
VL: SYVLTQPPSVSVAPGKTARIPCGGNNIGSKSVHWYQQRPGQAPVLVIYYDSVRPSGIPERFSGSNSGNTATLTISTVEAGDEADFYCQVWDSSRDHEVFGGGTKLTVL
notes: also called Ab 71; Antibody Number 71
B12: ADI-41221 (antibody, V domains shown)
VH: EVQLLESGGGLVKPGGSLRLSCAASGFTFSDYTMNWVRQAPGKGLEWVSSISITSSHIYYADSVKGRFTISRDNAKNSLYLQINSLRAEDTAAYYCARELGFASSSYSYYYGMDVWGQGTTVTVSS
VL: QSALTQPRSVSGSPGQSVTISCTGTSSDVGDYNSVSWYQQHPGTAPKLIIFDVTQRPSGVPDRFSGSKSANTASLTISGLQPEDEADYYCCSFAGNYVFGTGTKVTVL
B13: ADI-41229 (antibody, V domains shown)
VH: QVQLVQSGGGVVQPGRSLKLSCAASGFTFKSYGMHWVRQAPGKGLEWVAVISYDEINKYYADSVKGRFTISRDYSKNTLSLQMNSLTTEDTAMYYCAKPKTTGYYYLDAFDFWGQGTMVTVSS
VL: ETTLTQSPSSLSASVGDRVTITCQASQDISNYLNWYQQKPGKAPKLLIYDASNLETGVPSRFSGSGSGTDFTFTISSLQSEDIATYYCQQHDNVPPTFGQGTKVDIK
notes: also called Ab 551; Antibody Number 551
B14: ADI-41596 (antibody, V domains shown)
VH: QVQLQQWGAGLLKPSETLSLTCAVYGDSFSGYFWTWIRQPPGKGLEWIGEINLSGSTNYNPSLKSRVTILVDTSKNQFSLKLSSVTAADTAVYYCARGLHVSDDQDSSGYYFHPGSFDYWGQGTLVTVSS
VL: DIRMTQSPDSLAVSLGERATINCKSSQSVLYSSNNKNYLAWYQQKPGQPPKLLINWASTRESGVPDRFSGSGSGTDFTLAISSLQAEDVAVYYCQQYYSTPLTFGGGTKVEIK
notes: also called Ab 870; Antibody Number 870
B15: ADI-19425 Fab variant, light chain Y31A (Fab, V domains shown)
VH: EVQLVESGGGLVKPGGSLRLSCAASGFTFSSYSMNWVRQAPGKGLEWVSSISSSSSYIYYADSVKGRFTISRDNAKNSLYLQMNSLRAEDTAVYYCARLGYCSGGSCHFDYWGQGTLVTVSS
VL: QPVLTQPPSVSGAPGQRVTISCTGSSSNIGAGADVHWYQQLPGTAPKLLIYGNSNRPSGVPDRFSGSKSGTSASLAITGLQAEDEADYYCQSYDSSLSGFYVFGTGTKLTVL
notes: also called Y33A
B16: ADI-19425 Fab variant, light chain Y91A (Fab, V domains shown)
VH: B15 VH
VL: B15 VL with A33Y, Y93A
notes: also called Y93A

Positions count from the first letter of the chain named. Names and notes keep the numbering of the source. Bounds are passed on as bounds.

For the first experiment, the target named is T1, RSV postfusion F (postF), F ΔFP trimer, subtype A (Respiratory Syncytial Virus, subtype A, UniProt P03420 26-513). As to the kind of experiment: BLI, IgG on anti-human IgG sensors, 100 nM antigen, apparent KD. A general note: In BLI a coated tip is dipped into the sample, and binding shifts an interference pattern.
As for B1, the Kd was 0.442 nM.
Still for that read-out and setting: under B2 stands 0.265 nM.

A further experiment concerns the target T2, RSV prefusion F (preF), DS-Cav1 stabilized trimer, subtype A (Respiratory Syncytial Virus, subtype A, UniProt P03420 26-513). The description is as above.
For B1, the Kd was determined as 0.717 nM.
On the same count and under the same terms, under B2 stands 0.121 nM.

A further experiment has as its target RSV postfusion F (postF), F deltaFP (respiratory syncytial virus, UniProt P03420 26-513). The experiment is described as follows: BLI, IgG on sensor, 100 nM antigen.
In turn, B3 yielded a Kd of 1.11 nM.
B4 registered a Kd of 3.47 nM.
On to B5, for which the Kd was found to be 110 nM.
Still for that read-out and setting: under B6 stands 0.547 nM; under B7, 0.383 nM.
Same read-out and setting: next, B8: 0.571 nM; B9: 0.602 nM.

The next experiment deals with RSV fusion glycoprotein (RSV F) on RSV-A2 virus (respiratory syncytial virus, UniProt P03420 26-574). As to the kind of experiment: cell-based or functional assay.
As to B3, the “Neutralization IC50 (RSV subtype A)” value is over 25 µg/mL.
On the same count and under the same terms, under B4 stands over 25 µg/mL; under B5, over 25 µg/mL; under B6, over 25 µg/mL.
Turning to B7, the “Neutralization IC50 (RSV subtype A)” value turned out to be 2.54 µg/mL.
Take B8: the “Neutralization IC50 (RSV subtype A)” value was over 25 µg/mL.
As for B9, the “Neutralization IC50 (RSV subtype A)” value was over 25 µg/mL.

In a further experiment the target is T1, RSV postfusion F (postF), F ΔFP trimer, …. The experiment is described as follows: BLI, apparent IgG KD (Table 9A).
Turning to B10, the Kd turned out to be 0.15 nM.
As for B11, the Kd turned out to be 12 nM.
On the same count and under the same terms, next, B12: 0.32 nM; B13: 0.71 nM; B14: 0.44 nM.

Another experiment concerns the target T2, RSV prefusion F (preF), DS-Cav1 …. The experiment is described as follows: BLI, apparent IgG KD (Table 9A).
For the molecule B10, the Kd was 0.092 nM.
As to B11, the Kd was found to be 0.14 nM.
Regarding B12, the Kd was found to be 0.3 nM.
Take B13: the Kd amounted to 1.1 nM.
On the same count and under the same terms, next, B14: 0.3 nM.

The target in a further experiment is T3, RSV F on RSV subtype A virus (RSV-A2) (Respiratory Syncytial Virus, subtype A, …, UniProt P03420 26-574). The experiment is described as follows: cell-based or functional assay.
On to B10, for which the “Neutralization - RSV A2 IC50 (pM)” value was 67 pM and the “neut IC50 (ug/ml) subtype A (graham)” value amounted to 0.05 µg/mL.
In the same order, the values of B11 are 58.3 pM and 0.04 µg/mL.
As to B12, the “Neutralization - RSV A2 IC50 (pM)” value stood at 65.4 pM and the “neut IC50 (ug/ml) subtype A (wright)” value was 0.04 µg/mL.
With B13, the “Neutralization - RSV A2 IC50 (pM)” value stood at 228 pM and the “neut IC50 (ug/ml) subtype A (wright)” value stood at 0.066 µg/mL.
In the same order, the values of B14 are 180 pM and 0.054 µg/mL.

For a further experiment, the target named is RSV F on RSV subtype B virus (mKate-RSV B 18537) (Respiratory Syncytial Virus, subtype B, …, UniProt P13843 26-574). As to the kind of experiment: cell-based or functional assay.
On to B10, for which the “neut IC50 (ug/ml) subtype B (graham)” value worked out at 0.49 µg/mL.
Still for that read-out and setting: next, B11: 0.04 µg/mL.

Another experiment deals with T4, preF (DS-Cav1) with a C-terminal 8X HisTag and AviTag (Respiratory Syncytial Virus, UniProt P03420 26-513).
T4 construct: not shown: C-terminal 8X HisTag and AviTag
As to the kind of experiment: SPR, preF (DS-Cav1) captured on NTA chip, Fab in solution, 1:1 model. In general terms: SPR reads the build-up and loss of mass on a sensor chip optically.
For the molecule B15, the “fold reduction in affinity relative to ADI-19425 Fab” value was over 20 fold.
On the same count and under the same terms, under B16 stands over 80 fold.

For the next experiment, the target named is T3, RSV F on RSV subtype A virus (RSV-A2). As to the kind of experiment: cell-based or functional assay. The source holds these as a separate data set.
For the molecule B1, the “Neutralization IC50 (RSV subtype A)” value is over 25 µg/mL.
With B2, the “Neutralization IC50 (RSV subtype A)” value was 0.04 µg/mL.

For a further experiment, the target named is RSV prefusion F (preF), DS-Cav1 (respiratory syncytial virus, UniProt P03420 26-513). The experiment is described as follows: BLI, IgG on sensor.
On to B3, for which the binding result is reported as “no binding (tested: 100 nM antigen)”.
Same read-out and setting: under B4 stands “no binding (tested: 100 nM antigen)”; under B5, “no binding (tested: 100 nM antigen)”; under B6, “no binding (tested: 100 nM antigen)”.
B7: the binding result is given as “no binding (tested: 100 nM antigen)”.
Still for that read-out and setting: under B8 stands “no binding (tested: 100 nM antigen)”; under B9, “no binding (tested: 100 nM antigen)”.
